Reference: patent US9617344B2, “Fusion protein comprising targeting moiety, cleavage site, and cell membrane penetrating domain, and use thereof” (Samsung Electronics Co., Ltd., priority 2014, dated 2017)

Legend:
MDA-MB-231 xenograft = assay: Anticancer effect in MDA-MB-231 xenograft mouse model; assay type: in vivo, BALB/c nude mouse; settings: 75 uM/0.1 ml/mouse administered to the tumor tissue once a day
Experimental: To examine the anticancer effect of the conjugate of Example 2, a xenograft mouse model was employed. The xenograft mouse model was prepared by an […] injection of intractable breast cancer cell line MDA-MB-231 into breast tissue of 6-week old BALB/c nude mouse to form a tumor tissue.
In particular, 8×10^6 cells (in 0.08 ml of PBS with matrigel) of MDA-MB-231 (ATCC) were […] of 6-week old BALB/c nude mouse to prepare a xenograft mouse model (Orthotopic mouse model). When the tumor size reaches […], the xenograft mouse model was used in the following experiment.
The obtained results are shown in FIG. 7, and the degree (%) of tumor size reduction (tumor growth inhibition; TGI) compared to the buffer administered group calculated from the results of FIG. 7 was shown in Table 4: […]

EGFR present in A431 = target: T1, EGFR present in A431 (Homo sapiens, UniProt P00533); assay: Tumor cell targeting test (confocal imaging of protein binding to A431 cells); assay type: cell-based; settings: A431 cells treated with 7.5 or 15 ug/ml for one hour; fluorescent imaging, FIG. 2; positive control Erbitux
T1 construct: EGFR present in A431; host or cells: A431

A431 cells = assay: Cell cycle arrest test (gene transfection, DNA content by FACS); assay type: cell-based; settings: gene transfected into A431 cells with Lipofectamine 2000; compared to p16WT; FIGS. 3 and 4
Experimental: A vector containing a gene encoding ‘p16M7’ or ‘p16WT’ (wild-type) was transfected into A431 cells (ATCC) by liposomal transfection method using Lipofectamine 2000 (Invitrogen) (see Example 1). The transfection was performed according to a manual provided by Invitrogen. 24 hours after the transfection, the medium was exchanged with a fresh medium. At 24 hours 48 hours thereafter, DNA contents were measured by FACS.
After transfecting the p16M7 gene or p16WT gene into cells using Lipo2000, the presence of cell cycle arrest was observed. […] For labeling, pEGFP-C2 vector (Clontech) for p16WT and p16M7 (indicated as “p16 Mut” in FIG. 3). […] FIG. 4 contains graphs quantitatively showing the degree of cell cycle arrest of FIG. 3, wherein “% frequency” of Y axis refers to a value of cell population obtained through Flow jo software, each symbol in X axis refers to the follows: C2-6: using EGFP only (6 ul), C2-10: using EGFP only (10 ul), Mut: using p16M7 (6 ul or 10 ul) and WT: using p16WT (6 ul or 10 ul).

B1: D(EGFR)-M9R-MTS-NLS-p16M7: Conjugate: anti-EGFR DARPin (SEQ ID NO: 7), MMP9 cleavage site M9R, MTS-NLS fusion peptide, p16 variant p16M7; SEQ ID NO: 35 (protein)
chain: DLGKKLLEAARAGQDDEVRILMANGADVNADDTWGWTPLHLAAYQGHLEIVEVLLKNGADVNAYDYIGWTPLHLAADGHLEIVEVLLKNGADVNASDYIGDTPLHLAAHNGHLEIVEVLLKHGADVNAQDKFGKTAFDISIDNGNEDLAEILQSGKIPRTLTAAAVALLPAVLLALLAPKKKRKMEPAAGSSMEPSADKLATAAARGRVEEVRALLEAGADPNAPNSYGRRPIQVMMMGSARVAELLLKHGAEPNSADPATSTRPVHDAAREGFLDTLVVLHRAGARLDARDAWGRTPVDLAEELGHRDVARYLRAAAGGTRGSNHARIDAAEGPSDIPD
modifications: Synthetic Conjugate (anti-EGFR DARPin-M9R- MTS-NLS-p16M7)
increased anticancer effect compared to the control [Darpin(EGFR)] (MDA-MB-231 xenograft; versus D(EGFR) group): about 21.4%

B2: Darpin: Negative control; Mock Darpin having no binding target; SEQ ID NO: 43 (protein)
chain: GSDLGKKLLEAARAGQDDEVRILMANGADVNAEDKVGLTPLHLAAMNDHLEIVEVLLKNGADVNAIDAIGETPLHLVAMYGHLEIVEVLLKHGADVNAQDKFGKTAFDISIDNGNEDLAEILQKLN
modifications: Synthetic Non-EGFR targeting DARPin
binding ability to EGFR present in A431 (EGFR present in A431): little binding ability

B3: p16M7: Human p16 protein variant with seven substitutions for improved solubility (SEQ ID NO: 2) (protein)
chain: MEPAAGSSMEPSADKLATAAARGRVEEVRALLEAGADPNAPNSYGRRPIQVMMMGSARVAELLLKHGAEPNSADPATSTRPVHDAAREGFLDTLVVLHRAGARLDARDAWGRTPVDLAEELGHRDVARYLRAAAGGTRGSNHARIDAAEGPSDIPD
modifications: Synthetic Human p16 Variant
cell cycle arrest effect (A431 cells): maintaining the cell cycle arrest effect

B4: D(EGFR)-M9R-p16M7: Comparison conjugate lacking MTS-NLS: SEQ ID NO: 7-SEQ ID NO: 26-SEQ ID NO: 2 (protein)
chain: DLGKKLLEAARAGQDDEVRILMANGADVNADDTWGWTPLHLAAYQGHLEIVEVLLKNGADVNAYDYIGWTPLHLAADGHLEIVEVLLKNGADVNASDYIGDTPLHLAAHNGHLEIVEVLLKHGADVNAQDKFGKTAFDISIDNGNEDLAEILQSGKIPRTLTAMEPAAGSSMEPSADKLATAAARGRVEEVRALLEAGADPNAPNSYGRRPIQVMMMGSARVAELLLKHGAEPNSADPATSTRPVHDAAREGFLDTLVVLHRAGARLDARDAWGRTPVDLAEELGHRDVARYLRAAAGGTRGSNHARIDAAEGPSDIPD
modifications: Synthetic anti-EGFR DARPin-01; Synthetic MMP9 cleavage region; Synthetic Human p16 Variant
degree (%) of tumor size reduction (tumor growth inhibition; TGI) compared to the buffer administered group (MDA-MB-231 xenograft; n=10, calculated from FIG. 7): 50.0%
